Key:
[1] = target: AIP56^1–285 (N-terminal domain of AIP56, apoptosis-inducing protein of 56 kDa) (Photobacterium damselae piscicida); experiment: reducing and non-reducing SDS-PAGE; reconstituted AIP56: AIP56^1–285 and AIP56^286–497 mixed in equimolar amounts in 8 M urea, 1 mM DTT, refolded by extensive dialysis against sbPBS; run with and without DTT (Figure S6A)
[2] = target: AIP56^1–285 (N-terminal domain of AIP56, apoptosis-inducing protein of 56 kDa) (Photobacterium damselae piscicida); experiment: reducing and non-reducing SDS-PAGE; purified AIP56^1–285 and AIP56^286–497, each alone, run with and without DTT (Figure S5A); dimers held by a disulphide formed on oxidation
[3] = target: AIP56^286–497 (C-terminal domain of AIP56, apoptosis-inducing protein of 56 kDa) (Photobacterium damselae piscicida); experiment: reducing and non-reducing SDS-PAGE; reconstituted AIP56: AIP56^1–285 and AIP56^286–497 mixed in equimolar amounts in 8 M urea, 1 mM DTT, refolded by extensive dialysis against sbPBS; run with and without DTT (Figure S6A)
[4] = target: AIP56^286–497 (C-terminal domain of AIP56, apoptosis-inducing protein of 56 kDa) (Photobacterium damselae piscicida); experiment: reducing and non-reducing SDS-PAGE; purified AIP56^1–285 and AIP56^286–497, each alone, run with and without DTT (Figure S5A); dimers held by a disulphide formed on oxidation

Substance | stoichiometry N [1] | stoichiometry N [2] | stoichiometry N [3] | stoichiometry N [4]
AIP56^1–285 (N-terminal domain of AIP56, apoptosis-inducing protein of 56 kDa) (domain or fragment) | 2 | 2 |  | 
AIP56^286–497 (C-terminal domain of AIP56, apoptosis-inducing protein of 56 kDa) (domain or fragment) |  |  | 2 | 2
